pKd: −log10 of the molar value.
Target: Bcl-XL-126Bpa (UniProt Q07817)
Assay: BLI

Sequence of UniProt Q07817 (Q07817 whole entry): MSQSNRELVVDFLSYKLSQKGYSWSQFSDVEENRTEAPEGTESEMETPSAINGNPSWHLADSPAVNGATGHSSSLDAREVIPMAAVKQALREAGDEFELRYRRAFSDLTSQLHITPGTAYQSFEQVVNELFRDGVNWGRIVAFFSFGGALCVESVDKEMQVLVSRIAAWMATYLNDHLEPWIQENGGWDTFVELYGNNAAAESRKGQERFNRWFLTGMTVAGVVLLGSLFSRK

pKd: 5.75
Substance: Bid-83Bpa (from UniProt P55957 1-195) (natural protein)

From paper PMC12874534
